Measurements reported in the supplement of paper PMC7877785.
± gives the uncertainty stated by the source.

Experiment: self-splicing fitness, log relative to wild type (ln ratio); higher = more splicing; Tetrahymena group I intron in knt gene, E. coli kanamycin selection, DiMSum; sequences stand for … in CUCUCU…GGAGGGAAAAGUUAUCAGGCAUGCACCUGGUAGCUAGUCUUUAAACCAAUAGAUUGCAUCGGUUUAAAAGGCAAGACCGUCAAAUUGCGGGAAAGGGGUCAACAGCCGUUCAGUACCAAGUCUCAGGGGAAACUUUGAGAUGGCCUUGCAAAGGGUAUGGUAAUAAGCUGACGGACAUGGUCCUAACCACGCAGCCAAGUCCUAAGUCAACAGAUCUUCUGUUGAUAUGGAUGCAGUUCACAGACUAAAUGUCGGUCGGGGAAGAUGUAUUCUUCUCAUAAGAUAUAGUCGGACCUCUCCUUAAUGGGAGCUAGCGGAUGAAGUGAUGCAACACUGGAGCCGCUGGGAACUAAUUUGUAUGCGAAAGUAUAUUGAUUAGUUUUGGAGUACUCGUGGUCG
Method in brief: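 A randomised library covering all eight P1ex-region intron nucleotides was built with the intron in the knt kanamycin-resistance gene on pET-22b(+) and held in E. coli BL21(DE3). Cells were grown overnight at 37°C or 30°C on LB agar, with or without 25 μg/mL kanamycin, plus 100 μg/mL carbenicillin, 50 μM IPTG and 0.2% rhamnose, and pooled colonies were amplicon-sequenced on an Illumina HiSeq 2500. DiMSum fitness is the error-weighted combination of wild-type-normalised replicate fold changes, kanamycin versus none.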

Row | Sequence | self-splicing fitness (ln) (30 °C) | self-splicing fitness (ln) (37 °C)
1 | UUGGAGCAAUAUUACGAUCG | -2.53 ± 0.24 | -1.66 ± 0.2
2 | GUAAAGCAAUAUUACGAAGA | -1.9 ± 0.1 | -1.03 ± 0.12
3 | ACGAAGCAAUAUUACGCGAU | -2.21 ± 0.13 | -0.777 ± 0.14
4 | AUUUAGCAAUAUUACGUUAC | -2.76 ± 0.33 | -2 ± 0.27
5 | GGCUAGCAAUAUUACGCAUC | 0.346 ± 0.16 | 0.785 ± 0.17
6 | GCCAAGCAAUAUUACGUUAG | -1.93 ± 0.12 | -2.64 ± 0.2
7 | GCCGAGCAAUAUUACGGGAC | -0.849 ± 0.11 | -1.12 ± 0.15
8 | CAGCAGCAAUAUUACGCCUC | -1.98 ± 0.13 | -0.839 ± 0.14
9 | AGGAAGCAAUAUUACGUCGA | -1.4 ± 0.16 | -0.922 ± 0.16
10 | GCAGAGCAAUAUUACGGCGC | -2.3 ± 0.23 | -1.28 ± 0.41
11 | UCAGAGCAAUAUUACGAGGG | -2.95 ± 0.16 | -1.94 ± 0.16
12 | CACUAGCAAUAUUACGCGUA | -1.84 ± 0.093 | -0.0161 ± 0.075
13 | UAGGAGCAAUAUUACGCUGC | -3.05 ± 0.41 | -1.03 ± 0.42
14 | CCUGAGCAAUAUUACGCUAG | -3.02 ± 0.19 | -1.27 ± 0.17
15 | CCCCAGCAAUAUUACGCGUU | -4.16 ± 0.17 | -2.57 ± 0.19
16 | ACCCAGCAAUAUUACGUAGA | -2.03 ± 0.1 | -1.39 ± 0.11
17 | AUGGAGCAAUAUUACGGCAA | -0.0716 ± 0.34 | -3.02 ± 0.47
18 | UAUCAGCAAUAUUACGACAG | -0.385 ± 0.078 | 0.0531 ± 0.1
19 | GAGCAGCAAUAUUACGGACA | -2.64 ± 0.15 | -1.53 ± 0.12
20 | GACUAGCAAUAUUACGUAUU | -1.11 ± 0.072 | -0.646 ± 0.079
21 | GCAAAGCAAUAUUACGGACA | -0.517 ± 0.18 | -0.839 ± 0.14
22 | GCCUAGCAAUAUUACGGGUC | -4.6 ± 0.36 | -2.89 ± 0.25
23 | ACACAGCAAUAUUACGGGCU | -2.08 ± 0.093 | -1.11 ± 0.13
24 | UCAUAGCAAUAUUACGUGAA | -2.56 ± 0.091 | -1.61 ± 0.1

Row | Sequence | self-splicing fitness (ln) (30 °C) | self-splicing fitness (ln) (37 °C)
25 | GUCCAGCAAUAUUACGGUGC | -0.903 ± 0.059 | -0.726 ± 0.071
26 | CUUCAGCAAUAUUACGAUAG | -0.458 ± 0.07 | -0.818 ± 0.1
27 | GCGAAGCAAUAUUACGCCUA | -3.1 ± 0.45 | -2.39 ± 0.34
28 | UUCCAGCAAUAUUACGGUAU | -2.13 ± 0.11 | -1.5 ± 0.12
29 | CAGCAGCAAUAUUACGUUUU | -2.86 ± 0.1 | -1.15 ± 0.11
30 | AUCCAGCAAUAUUACGUCUG | -3.67 ± 0.23 | -2.55 ± 0.25
31 | AUUUAGCAAUAUUACGGUAC | – | -1.07 ± 0.33
32 | CAUGAGCAAUAUUACGUCUG | -1.41 ± 0.073 | -1.06 ± 0.073
33 | UCGGAGCAAUAUUACGGUGG | -3.35 ± 0.12 | -2.01 ± 0.16
34 | CAACAGCAAUAUUACGUACC | -2.7 ± 0.12 | -0.824 ± 0.12
35 | GCGCAGCAAUAUUACGUUGU | -3.03 ± 0.13 | -1.24 ± 0.12
36 | GAUGAGCAAUAUUACGGAGU | -3.16 ± 0.26 | -2.71 ± 0.38
37 | ACUGAGCAAUAUUACGAAAG | -2.67 ± 0.15 | -1.73 ± 0.18
38 | ACCAAGCAAUAUUACGAAUA | -2.69 ± 0.2 | -2.1 ± 0.16
39 | UAGAAGCAAUAUUACGCUGG | -1.38 ± 0.16 | -0.436 ± 0.18
40 | CUCUAGCAAUAUUACGCGCU | -2.55 ± 0.3 | -3.61 ± 0.27
41 | GCGAAGCAAUAUUACGCUCA | -1.48 ± 0.28 | -2.25 ± 0.33
42 | CAGGAGCAAUAUUACGUGAG | -1.42 ± 0.084 | -0.711 ± 0.098
43 | GUAAAGCAAUAUUACGUGCA | 0.139 ± 0.058 | 0.551 ± 0.093
44 | AGUAAGCAAUAUUACGCCGC | -1.03 ± 0.25 | -2.95 ± 0.48
45 | GGUCAGCAAUAUUACGCAAU | -0.0569 ± 0.099 | 0.16 ± 0.12
46 | AAUUAGCAAUAUUACGACAG | -1.72 ± 0.32 | -0.992 ± 0.25
47 | UCAUAGCAAUAUUACGCUAA | -3.23 ± 0.37 | -2.07 ± 0.29
48 | UCUGAGCAAUAUUACGAGAU | -3.79 ± 0.37 | -2.48 ± 0.3
